Results on 1 molecule are retold here after patent publication US20220280663A1, “[…] TARGETED […] ACTIVE SUBSTANCE OR LABEL […] SYSTEM” (CELLIS AG, priority 2016, published 2022).

Holding throughout (format): cell-based
The test system of assay [1] is EMT6. The assay can be described thus: Ferritin transfer from RAW264.7 macrophages to EMT6 cells under oxidative stress. The source says: FIG. 27: Ferritin transfer was examined in cancer cells (EMT6) co-cultured with ferritin-loaded macrophages (RAW264.7) for 2 hrs. Three experimental conditions were used: “ctrl” (normal co-culture, no stress); “EMT6 OS” when EMT6 cells were subjected to the oxidative stress before co-culture and then co-cultured with macrophages at normoxic conditions and “co-culture OS” when both cell types were subjected to the oxidative stress before the co-culture. […] It can be related with higher load of ferritin due to oxidative stress and therefore more efficient transfer, or oxidative stress triggers macrophages to more efficiently deliver ferritins to cancer cells in order to reduce oxidative stress in neighboring cells.

Assay [2] relates to CD45^+ leukocyte cell. Description: Uptake and storage of iron binding proteins by CD45+ leukocyte cells. The protocol: Obtained cells are incubated in ferritin solution for a time and at the concentration sufficient to ensure proper ratio of ferritin/cell for their full load and also to ensure proper drug content to obtain therapeutic effect or contrast for proper imaging. The time and concentration may vary depending on the number of molecules encapsulated/adsorbed into the ferritin cage, status of cell activation, condition and number of their intended administration.
For example, to ensure proper load with ferritins, cells are incubated for 1-4 hours in ferritin solution 0.8 mg/ml in standard culture conditions. The frame of ferritin concentration may vary at least between 0.01 and 4 mg/ml as well as incubation time (5 min-6 hours or more). Adjusting time and concentration of ferritin load to cells, the influence of ferritin and treatment conditions on cell viability should be minded.
Obtained cells are incubated in haemoglobin solution for a time and at the concentration sufficient to ensure proper ratio of haemoglobin/cell for their full load and also to ensure proper drug content to obtain therapeutic effect or contrast for proper imaging. The time and concentration may vary depending on the number of molecules linked with the haemoglobin molecule, status of cell activation, condition and number of their intended administration. […]

For assay [3], the system named is cancer cells. The assay can be described thus: Transfer of iron binding proteins from loaded leukocytes to co-cultured cancer cells. The source says: However, in case of cancer cells the ratio of both cell types is crucial. The more macrophages the better and faster the transport is. The most efficient transfer to the cancer cells was observed when ratio of macrophages to cancer cells was 1:1 or more.
This transfer of compounds conjugated with anticancer drugs made the effect inducing apoptosis in cancer cells (FIG. 6, 13).
However, the ratio of both cell types is important. The more monocytes the better and faster the transport is. The most efficient transfer to the cancer cells was observed when ratio of monocytes to cancer cells was 1:1 or more.
However, the ratio of both cell types is crucial. The more granulocytes the better and faster the transport is. The most efficient transfer to the cancer cells was observed when ratio of granulocytes to cancer cells was 1:1 or more.
However, the ratio of both cell types is crucial. The more lymphocytes the better and faster the transport is. The most efficient transfer to the cancer cells was observed when ratio of lymphocytes to cancer cells was 1:1 or more.

B1: ferritins: recombinant mouse ferritin protein of SEQ ID NO: 4; mammalian ferritin H and/or L homopolymers (protein)
chain: MTTASPSQVRQNYHQDAEAAINRQINLELYASYVYLSMSCYFDRDDVALKNFAKYFLHQSHEEREHAEKLMKLQNQRGGRIFLQDIKKPDRDDWESGLNAMECALHLEKSVNQSLLELHKLATDKNDPHLCDFIETYYLSEQVKSIKELGDHVTNLRKMGAPEAGMAEYLFDKHTLGHGD
In the case of B1, the “ferritin received by cancer cells from macrophages versus control” value in assay [1] (EMT6 OS: EMT6 cells subjected to oxidative stress before 2 hrs co-culture) is given as “more ferritins than control cells”. The “ferritin uptake by cancer cells from macrophages” value in assay [1] (co-culture OS: both cell types subjected to oxidative stress before 2 hrs co-culture) was “even more efficient”. The “release of absorbed ferritin to the culture medium” value in assay [2] (after ferritin loading (FIG. 9)) is reported as “do not release it to the culture medium”. Moreover, the “uptake of iron binding protein by cells” value in assay [2] (incubation 1-4 hours in protein solution (ferritin 0.8 mg/ml; haemoglobin, transferrin 0.1 mg/ml), standard culture conditions) is recorded as “very easily uptake”. The “specificity of transfer from macrophages: cancer cells versus non-cancer cells” value in assay [3] (FIG. 11) is listed as “much more specific to cancer cells than to non-cancer cells”. Besides, the “transport to cancer cells from granulocytes” value in assay [3] (loaded granulocytes (FIG. 15)) is recorded as “very easily transport”. Moreover, the “transport to cancer cells from lymphocytes” value in assay [3] (loaded lymphocytes (FIG. 16)) is listed as “very easily transport”. In assay [3] (loaded macrophages, mouse mammary, colon, canine mammary, human breast, pancreatic, bladder cancer cells), the “transport to cancer cells from macrophages” value is “very easily transport”. In addition, the “transport to cancer cells from monocytes” value in assay [3] (loaded monocytes (FIG. 14)) was “very easily transport”.
